To fix the notation:
B1: TPR t1 (parent)
chain: GACCAAUCUGCCCUCAGAGCUCGAGAACAUCUUCGGAUGCAGAGGAGGCAGGCUUCGGUGGCGCGAUAGCGCCAACGUCCUCAACCUCCAAUGCAUCCCACCACAUGAUGAUGCCUGAAGAGCCUUGGUUUUUUG

Results on 167 variants are retold here after the RNAGym collection of RNA variant scans (doi:10.1073/pnas.2313332121).

This data set covers variants of B1. As to the kind of experiment: polymerase ribozyme fitness, log enrichment relative to wild type (log ratio); higher = more active; in vitro selection for triplet polymerase activity. Summed up:
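Each subunit of a heterodimeric triplet polymerase ribozyme was represented by a PCR-built, transcribed mutant library that underwent triplicate single-round in vitro selection with frozen incubation at −7 °C. Extended constructs were recovered by gel excision, streptavidin-bead capture and RT-PCR, and Illumina sequencing of input and output libraries kept genotypes with ≥10 input reads and ≥1 read per output. Fitness is the logarithm of genotype enrichment relative to wild-type enrichment, from inverse-variance-weighted replicate averages, with a logarithm base of 2.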
On to A26U C72G, for which the “polymerase ribozyme fitness (log ratio)” value was -3.37.

As for A26U A41C A46U G61A C101U, the “polymerase ribozyme fitness (log ratio)” value is -4.43. As for A26U C49U U54C G93C, the figure is -5.34. For A26C A46C C115G, the “polymerase ribozyme fitness (log ratio)” value was -6.72.

Take A26G C62A C89U: the “polymerase ribozyme fitness (log ratio)” value was -4.69. Under A26U C85U C123A stands -3.83. Under A26U C53G C73U A100U stands -4.47; under A26U G39A G120C C124A G135A, -3.54; under A26C C49A C123U, -4.69. Under A26G C49U C73A stands -2.93.

For G25U C31G U55G G71C C115A A119U G122A, the “polymerase ribozyme fitness (log ratio)” value is -6.9. Under A26G A37U G42U C72A G120C stands -2.36. Under A26U A43U G45U G63C C89U G120A stands -6.22; under G25U C56G, -5.61; under A26U A46U C72U, -3.97. Turning to A26U C49A G60A G110A, the “polymerase ribozyme fitness (log ratio)” value is -4.81. Under A26C G61C U112G stands -5.78; under A26U A74U C88A G93A C101U, -5.3. Under A26U G47A C86G stands -2.67; under A26C C56G, -5.43; under A26U C64U A118G, -3.85. As for A26C G57U, the figure is -6.49; as for A26U A50C U55G, -4.51; as for A26U A46U G61A, -3.77.

Consider A26U C82U, for which the “polymerase ribozyme fitness (log ratio)” value was -3.73.

In the case of A26U G45A G77U, the “polymerase ribozyme fitness (log ratio)” value was -3.48.

For A26G C82U C124A G127C U133C G135U, the “polymerase ribozyme fitness (log ratio)” value was -4.09. Under A26U C31G A43G C89A A121U stands -7.24; under A26G G48A C49G C73U A121U, -0.344; under A26G C28U U87C A118U, -2.19.

Regarding A26U C53U U116G, the “polymerase ribozyme fitness (log ratio)” value is -6.15. As for A26U A118C C123U, the figure is -3.12; as for A26C G47C U112A, -4.78; as for G25C U32C G45A C49A A68U G69A A121U, -7.08. As for A26U C40A G60C, the figure is -6.14; as for A26G G63U, -3.45.

With A26U C70U C114U, the “polymerase ribozyme fitness (log ratio)” value is -7.55. Under G25C G36U U87A A108G G120A G135C stands -5.8. As for A26G G60C C82A, the figure is -2.8. As for A26U A50U, the figure is -4.75. As for A26G G110U, the “polymerase ribozyme fitness (log ratio)” value is -2.66. Under G25C G120A stands -5.07; under A26G A29C, -3.02. For the variant A26G A74G G93U U106A U109C, the “polymerase ribozyme fitness (log ratio)” value was -3.92. Under A26G C28U G35A U87G C124A stands -4.92; under A26G C124G, 0.285.

In the case of A26G G57A, the “polymerase ribozyme fitness (log ratio)” value was -2.54. Under A26G A41G G60C G93A stands -2.97.

Regarding A26U C34A C40U G110U, the “polymerase ribozyme fitness (log ratio)” value is -6.16. Turning to A26C C56U G61A G63U C115U U129G U131A, the “polymerase ribozyme fitness (log ratio)” value is -4.23.

With A26C C53A U112G, the “polymerase ribozyme fitness (log ratio)” value is -5.53. Under A26C G39U C114G stands -6.59; under A26U A50U C124G, -2.5; under A26U C73A, -2.82. Under A26G G44U U55G C88U stands -3.03; under A26G U112A U125A, -1.55; under A26U C53U A95U G113A, -6.17. Consider G25U G120A, for which the “polymerase ribozyme fitness (log ratio)” value is -3.94.

For the variant G25U G120C, the “polymerase ribozyme fitness (log ratio)” value was -3.76. Under A26U C56A stands -4.03. As for A26U C56U, the figure is -3.38; as for A26G G44U G61A C99U G120U C124A, -3.22; as for G25C G71A C73A C89A G110A, -6.79.

Consider A26G G47A C72U G93C G113A, for which the “polymerase ribozyme fitness (log ratio)” value is -6.9.

As for A26U C97A A121U, the “polymerase ribozyme fitness (log ratio)” value is -5.2. As to A26G C72G A100C C115U G128A, the “polymerase ribozyme fitness (log ratio)” value was -5.88. Under A26U C64U stands -3.52; under A26G C104U G110C C115A, -5.13. As for A26U C123A, the figure is -2.9; as for G25C G42U G44U C104U C124U, -7.89; as for A26G A66U A84U G110U G135U, -5.61. Under A26G A111U stands -2.41; under G25U A29G G45A C80U G110U, -6.86; under G25U U32G C72A G110A, -6.9. For the variant A26U A37C, the “polymerase ribozyme fitness (log ratio)” value is -2.35. Under A26U A37G stands -2.5. As for A26C G36A G61A, the figure is -5.9.

Turning to A26U C53G G60A C80U, the “polymerase ribozyme fitness (log ratio)” value was -4.36. As for A26G C70G G113A, the figure is -5.88; as for A26U A74G A121G, -1.18; as for A26U C34U U59C C85A G113A G127U, -6.04. For the variant A26G C49G, the “polymerase ribozyme fitness (log ratio)” value is -2.93. Under A26G G93A stands -2.29. On to A26G U32C G60A C64U, for which the “polymerase ribozyme fitness (log ratio)” value was -5.28.

Consider A26U C102A, for which the “polymerase ribozyme fitness (log ratio)” value is -5.29. Under A26G G63U A95U C99U stands -5.64; under G25C G61C U96C C98A U112G C123U, -6.63; under A26G C62U, -1.47. As for G25C G47U C64G U109A U133C, the “polymerase ribozyme fitness (log ratio)” value was -6.25. As for A26G G39U G69C C76U A95G G110A, the “polymerase ribozyme fitness (log ratio)” value is -5.41. Take G25C G69U G110C: the “polymerase ribozyme fitness (log ratio)” value was -7.38. Consider A26C G36A G69U G110A, for which the “polymerase ribozyme fitness (log ratio)” value was -6.98.

For A26U A37G C53A G120C C123A, the “polymerase ribozyme fitness (log ratio)” value is -2.54.

As to G25C G47A A103U C115G, the “polymerase ribozyme fitness (log ratio)” value was -7.4. As for A26C U55G, the figure is -5.98; as for A26U A46C G63A G120U, -5; as for A26U G39C G61A A83U G110A A121G, -5.04. As for A26U C64U C82A G93A, the figure is -4.48. With A26U C34A G63C U112G G128C, the “polymerase ribozyme fitness (log ratio)” value is -7.83. On to G25U C64A C98G A111U, for which the “polymerase ribozyme fitness (log ratio)” value is -8.01.

On to G25U C104U, for which the “polymerase ribozyme fitness (log ratio)” value is -5.92. Under A26U C88A A119U stands -4.48; under A26G A37U C72G C123U U133A, -2.74. As for A26C C53U C86U U112A, the figure is -5.9; as for A26C G36U A41U G120U U132A, -5.17. Under A26U A37C C72G G77A C124G stands -2.81; under A26U C64A C115U, -6.23; under A26U A50C G58A, -4.45. A26U C53G C80U: the “polymerase ribozyme fitness (log ratio)” value was -3.08. Under A26G G71U stands -3.23. Under A26C C40G U87C C101U C104U stands -5.71.

As for A26G A105U, the “polymerase ribozyme fitness (log ratio)” value is -3.51. Under A26U C49G stands -3.57; under A26G U54A A108G, -4.49. As for A26G G60U, the figure is -2.17; as for A26G C72U, -2.13. As for A26U A46C C56A G120U, the figure is -4.53; as for A26G C34A G44A C124U, -3.54; as for A26G U33G G61A A84C C98U, -5.59. Consider G25C G58A C64A A83C G110C, for which the “polymerase ribozyme fitness (log ratio)” value is -6.43. Under G25C G69U A111U stands -7. As for G25C U32A G42C G45A G51C A111U, the figure is -8.24; as for A26U A50U G57C, -4.64; as for A26U A46U, -4.63. Under A26U G47C G77A U78A stands -5.33; under A26U C49U A84C C124G, -2.34. As to A26G A46G G63A, the “polymerase ribozyme fitness (log ratio)” value was -3.44. As for A26G A43U A50U C72A, the figure is -5.38; as for A26G C56G C97U C99A A111G, -6.74.

As to A26U C56G G69U, the “polymerase ribozyme fitness (log ratio)” value was -2.73.

On to A26C G69U G120U, for which the “polymerase ribozyme fitness (log ratio)” value is -2.51. A26C U54G A103C A105U U112C: the “polymerase ribozyme fitness (log ratio)” value is -6.86. As for A26C G63A C82G A90G U112A, the figure is -5.15; as for A26G C73A A100U, -2.85; as for A26C C72U, -5.89. As for A26U G42U G57A U78G U106A, the figure is -5.03; as for A26G C123G C124G, 0.832; as for A26C C28G G52U C88U G120A, -5.8. Under A26C A46G G69U A74U stands -5.53; under A26C G69C G117C, -6.27; under G25U A26G A46U, -3.61. In the case of A26G G61U, the “polymerase ribozyme fitness (log ratio)” value is -1.54. As for A26G C88G C97U C123A, the figure is -3.63; as for A26G A83C A90G A121C, -0.49; as for A26G A84G C94A A95U, -4.63. As for G25C G48U C72G C86G A100U C102A G117U A119G, the figure is -7.7; as for A26U C88A, -3.45. On to A26C G39C C56A A100G U112C, for which the “polymerase ribozyme fitness (log ratio)” value was -7.51. On to A26U C53A G61C U78A G110A, for which the “polymerase ribozyme fitness (log ratio)” value was -5.96. As for A26G A46G G60U, the “polymerase ribozyme fitness (log ratio)” value is -3.73.

On to A26G G65A, for which the “polymerase ribozyme fitness (log ratio)” value was -5.09. Under G25U A46U stands -5.86; under A26U C86A G110A, -5.7; under G25U A43C U78G A121G, -5.96. Under G25C U116C stands -5.31; under A26C G35C G39U A90C G117U, -7.41. Regarding G25U G44U C56A C70U U109G, the “polymerase ribozyme fitness (log ratio)” value was -7.02. Under A26U C62U A83C C104G A105C C114U U129A stands -7.45. As for A26C G35A G61U C98G C124U, the figure is -6.78; as for G25U C94U C101U G113A C124A, -7.17; as for G25C U33G C34U A46U C70A, -8.69.

With A26U A43G G48U C94G G110A, the “polymerase ribozyme fitness (log ratio)” value was -6.66.

Turning to A26G G69A, the “polymerase ribozyme fitness (log ratio)” value was -4.23.

Turning to A26U C124A, the “polymerase ribozyme fitness (log ratio)” value was -0.634.

For the variant A26C G47C C88A C102G A105C C123A, the “polymerase ribozyme fitness (log ratio)” value was -7.85. As for A26C C49A C98U C114U, the figure is -6.14; as for A26U G36C G61U U81A U87C G120C, -4.
